# Measurements: patent publication US20190345225A1 (KEROS THERAPEUTICS, published 2019)
# Positions count from the first letter of the chain named.
# T1: extracellular ActRIIb (SEQ ID NO: 74) fused to the N-terminus of hFc through a GGG linker (human, UniProt Q13705 20-134)
# T1 construct: also called ActRIIb (41-155); wild-type extracellular ActRIIb; not shown: human Fc (hFc)
# T1 sequence: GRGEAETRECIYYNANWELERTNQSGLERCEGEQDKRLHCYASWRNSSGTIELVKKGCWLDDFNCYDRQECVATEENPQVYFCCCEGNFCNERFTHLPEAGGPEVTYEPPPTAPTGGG
# B1: extracellular ActRIIb variant (SEQ ID NO: 149) fused to the N-terminus of hFc through a GGG linker (Fc fusion)
# chain: GRGEAETRECIFYNANWEKDRTNQSGLEPCYGDQDKRRHCFASWKNSSGTIELVKQGCWLDDINCYDRQECVAKKDSPEVYFCCCEGNFCNERFTHLPEAGGPEVTYEPPPTAPTGGG
# notes: also called ActRIIb/a variant; ActRIIb/a; not shown: human Fc (hFc)
# B2: extracellular ActRIIa/bΔ9 variant (SEQ ID NO: 58) fused to the N-terminus of hFc through a GGG linker (Fc fusion)
# chain: GAILGRSETQECLFYNANWELDRTNQTGVERCEGEKDKRLHCYATWRNISGSIEIVKKGCWLDDFNCYDRTDCVETKENPQVYFCCCEGNMCNEKFSYFPEMEVTQPTSGGG
# notes: also called ActRIIA/BΔ9-Fc; not shown: human Fc (hFc)
# B3: ActRIIa/b-delta 9m3 (SEQ ID NO: 41) fused to the N-terminus of hFc through a GGG linker (Fc fusion)
# chain: B2 chain with Y43F
# notes: also called ActRIIa/bΔ9m3 variant; not shown: human Fc (hFc)
# B4: ActRIIa/bmax1 (SEQ ID NO: 70) fused to the N-terminus of hFc through a GGG linker (Fc fusion)
# chain: B2 chain with F14Y, D22E, K36Q, K77E
# notes: also called ActRIIa/bmax1 variant; not shown: human Fc (hFc)
# B5: ActRIIa/b-delta 9m4 (SEQ ID NO: 44) fused to the N-terminus of hFc through a GGG linker (Fc fusion)
# chain: B2 chain with R31P
# notes: also called ActRIIa/bΔ9m4 variant; not shown: human Fc (hFc)
# B6: extracellular ActRIIa/b variant (SEQ ID NO: 69) fused to the N-terminus of hFc through a GGG linker (Fc fusion)
# chain: B2 chain with D22E, K77E
# notes: also called ActRIIA/B-Fc; not shown: human Fc (hFc)
# B7: ActRIIa/b-delta 9m2 (SEQ ID NO: 38) fused to the N-terminus of hFc through a GGG linker (Fc fusion)
# chain: B2 chain with F65I
# notes: also called ActRIIa/bΔ9m2 variant; not shown: human Fc (hFc)
# B8: extracellular ActRIIa/bΔ9 min variant (SEQ ID NO: 6) fused to the N-terminus of hFc through a GGG linker (Fc fusion)
# chain: B2 chain with R31P, Y43F, R47K, F65I
# notes: not shown: human Fc (hFc)
# B9: ActRIIa/bmax2 (SEQ ID NO: 71) fused to the N-terminus of hFc through a GGG linker (Fc fusion)
# chain: GAILGRSETQECLFYNANWELERTNQTGVERCEGEKDKRLHCYATWRNISGSIEIVKKGCWLDDFNCYDRTDCVETEENPQVYFCCCEGNMCNEKFSYFPEMEVTQPTSNPGGG
# notes: also called ActRIIa/bmax2 variant; not shown: human Fc (hFc)
# B10: ActRIIa/bmax3 variant (SEQ ID NO: 72) fused to the N-terminus of hFc through a GGG linker (Fc fusion)
# chain: GAILGRSETQECLFYNANWELERTNQTGVERCEGEKDKRLHCYATWRNISGSIEIVKKGCWLDDFNCYDRTDCVETEENPQVYFCCCEGNMCNEKFSYFPEMEVTQPTSNPVTPKGGG
# notes: not shown: human Fc (hFc)
# B11: ActRIIa/b+ (SEQ ID NO: 150) fused to the N-terminus of hFc through a GGG linker (Fc fusion)
# chain: B2 chain with D22E, K57A, K77E
# notes: also called ActRIIab+ variant; not shown: human Fc (hFc)
# B12: extracellular ActRIIa (SEQ ID NO: 73) fused to the N-terminus of hFc through a GGG linker (Fc fusion)
# chain: AILGRSETQECLFFNANWEKDRTNQTGVEPCYGDKDKRRHCFATWKNISGSIEIVKQGCWLDDINCYDRTDCVEKKDSPEVYFCCCEGNMCNEKFSYFPEMEVTQPTSGGG
# notes: also called ActRIIa (19-127); wild-type extracellular ActRIIa; not shown: human Fc (hFc)
# B13: Activin B (ligand, UniProt P09529 293-407, looked up)
# chain: GLECDGRTNLCCRQQFFIDFRLIGWNDWIIAPTGYYGNYCEGSCPAYLAGVPGSASSFHTAVVNQYRMRGLNPGTVNSCCIPTKLSTMSMLYFDDEYNIVKRDVPNMIVEECGCA
# B14: Activin A (ligand, UniProt P08476 311-426, looked up)
# chain: GLECDGKVNICCKKQFFVSFKDIGWNDWIIAPSGYHANYCEGECPSHIAGTSGSSLSFHSTVINHYRMRGHSPFANLKSCCVPTKLRPMSMLYYDDGQNIIKKDIQNMIVEECGCS
# B15: BMP-9 (ligand, UniProt Q9UK05 320-429, looked up)
# chain: SAGAGSHCQKTSLRVNFEDIGWDSWIIAPKEYEAYECKGGCFFPLADDVTPTKHAIVQTLVHLKFPTKVGKACCVPTKLSPISVLYKDDMGVPTLKYHYEGMSVAECGCR
# notes: also called bone morphogenetic protein 9
# B16: growth differentiation factor 11 (GDF11) (ligand, UniProt O95390 299-407, looked up)
# chain: NLGLDCDEHSSESRCCRYPLTVDFEAFGWDWIIAPKRYKANYCSGQCEYMFMQKYPHTHLVQQANPRGSAGPCCTPTKMSPINMLYFNDKQQIIYGKIPGMVVDRCGCS
# Biological target: B16
# Assay: SPR, Biacore 3000; receptor fusion captured on the chip by antibody, ligand run in a concentration series
row,Binder,binding result
1,B1,no binding

# Biological target: B14
# Assay: as above
row,Binder,binding result
1,B1,no binding

# Biological target: B13
# Assay: as above
row,Binder,binding result
1,B1,no binding

# Biological target: B16
# Assay: SPR, Biacore 3000; receptor fusion captured on chip, ligand in solution
row,Binder,Kd
1,B2,0.115 nM
2,B3,0.117 nM
3,B4,0.236 nM
4,B5,0.394 nM
5,B6,0.186 nM
6,B7,0.222 nM
7,B8,0.114 nM
8,B9,0.113 nM
9,B10,0.214 nM

# Biological target: B14
# Assay: as above
row,Binder,Kd
1,B2,0.213 nM
2,B3,0.071 nM
3,B4,0.232 nM
4,B5,0.375 nM
5,B6,0.542 nM
6,B11,0.242 nM
7,B7,0.17 nM
8,B8,0.31 nM
9,B9,0.135 nM
10,B10,0.089 nM
11,B12,1 nM

# Biological target: T1, extracellular ActRIIb (SEQ ID NO: 74) …
# Assay: as above
row,Binder,Kd
1,B13,0.023 nM
2,B14,0.063 nM

# Biological target: B13
# Assay: as above
row,Binder,Kd
1,B2,0.0123 nM
2,B3,0.0725 nM
3,B4,0.097 nM
4,B5,0.254 nM
5,B6,0.103 nM
6,B11,0.282 nM
7,B7,0.104 nM
8,B8,0.088 nM
9,B9,0.039 nM
10,B10,0.043 nM
11,B12,0.373 nM

# Biological target: B15
# Assay: as above
row,Binder,Kd
1,B2,10 nM
2,B3,1.2 nM
3,B4,5.6 nM
4,B5,14 to 20 nM
5,B6,4 nM
6,B11,26 nM
7,B7,13 to 18 nM
8,B8,17 nM
9,B9,5 nM
10,B10,3.3 nM

# Biological target: B12
# Assay: as above
row,Binder,Kd
1,B15,25 nM
2,B16,0.081 nM
